Experimental data: the DeepSol protein solubility set

Assay: soluble on expression in E. coli; label from the status in PepcDB or PDB records

Row | Sequence | soluble on expression in E. coli
1 | MIHITSQACFLWHTTINKICNRPMFNPLTIRFWGVRGSIPCPGSHTVRYGGNTPCVEIQANGQRIILDGGTGLRVLGEHLMGQQPVTAHLFFTHTHWDHIQGFPFFQPAFVPGNQFHIYAVPGKNGQGIERRLNDQMLHPNFPVPLQIMGGDLRFYDLEVGERVHLGDGVVVSNEALNHPGGGVGYRVSWQGIHVAYITDTEHLPDRLHPGAFALADHADVMIYDATYTDEEYYHPQQSKVGWGHSTWQEAVKLAQAAQVKQLILFHHDPSHDDDCLDRIGELARAQFPQTLLAREGLIISVYPNVIHFPATPQASLEHHHHHH | not soluble
2 | MFKHIISCLLLISATSALAAEKPTLTVYTYDSFAADWGPGPAIKQAFEAECDCQLKFVALEDGVSLLNRLRMEGKNSQADVILGLDNNLVQAAEQTGLFTPSQVDTRNLTLPEPWQNKTFVPYDYGYFAFVYNKEKLKNPPKSLHELISSKEPWKVIYQDPRTSTPGLGLMLWMQKVYGDQAPQAWQQLAQKTVTVTKGWSEAYGLFLKGEADLVLSYTTSPAYHLIAEKNNNYAAADFSEGHYLQVEVAGQLAASKQPELAQRFMQFIVTPAFQNHIPTGNWMYPVIKMDLPAGFETLAVPQTALQFDAKDVADNRSKWIQAWQSAVSR | not soluble
3 | MFVRTAVVLLLVASTAYTFVAPPSQATLACITCVATVKGVEAKMLHEGGNVAKHDVDAICLKEVPTHSAEHLCEEYGEHEVDVMVTLIKQDVPPKMICQELQKC | not soluble
4 | MGHHHHHHSHMSSMQRRAFVALGLMAMLAACSPAKKEDAAAGQTPIKLATDWRAQAELGGYYQALATGEYKKRGLDVTLIQGGPAVNVPQLLATGAVDVGVGSNSFIIMNLAKENAPVKAVAAFMQKDPQVLIAHPDQGINGIADMKGRPILLSDASVTAFWVWLKAKYGFTDDQVRKYNYSSAPFLADKRVVQQGYATSEPYLIEKEGKIKPAVFLLADSGYPAYASFALVPDSLIAKNPAAVQAFVEATAAGWTSYLYGDPKPGDAAILKDNPEMTQDVLDQAREKMRSYGIVSANGGRGDIGQMTDARWAEFFKVASEQGVYPADMDYKKAYTLQFLPKGP | not soluble
5 | GPGSMSHNVRPSRYAVSQSKARIFVGQLEPYVTEQDLYPVFSCYGKILHLNIVRHSTTVTPNEERRIPTAFVWYETTTEADAAIAALHNVFTFSSPDEEENKVRYIQVSYADKSPECTPWGRWQKTQAEIMRRTNPSGTGTGSNMPGQYSHITGGGPSTYSSSALNNDGGFTVSATGPAIRSSQSSGDISSMRYPRNPARGLRSMAPHIDHPEVQYYSSYDNLYNLGNRNQLYSMGGAANSMMGYTKHRGMPPHESTSSGDLGRGSTSSFWNMSEEVKKNTAANPNRFRHTARYTAPEPDEDLIMAAPTFTVTSGP | not soluble
6 | MGSDKIHHHHHHMWVCGLGVIRFGPAGKPVEFKGDIVKVPEFLRSIGLDALEYEAVRGVRISEAKARRLGEAARENGVILSMHAPYYVNLSSPDDSVVERSIKRLYDSMIASEWMGSYAVVVHPGYYKGLKSREEAVKRVIEALNRLIESLPSWVKTPWIAPETMGKQSQVGSLEETVEICLNTPRCRPCVDWAHLYARAEGKFVTSVDQVVKAIEYIESNLGREAVDPLHTHFSKIEYGKGGERMHHTLREEGYGPDWRIVCRAYKETGINAVVISESPILEKDALLMKSICKGEA | not soluble
7 | MGSDKIHHHHHHVRNYTYRYLNTIALPMETVRLISRINEYKGKQDLYKQQAPQVLDTLRDVAVIQSTKASNAIEGIVVTESRLHTIMSKSADPADRSEAEIAGYRDVLNLIHASARDIPINANVLLQLHKELYKFVPVEGGRWKNVDNEISESFPDGTRRTRFVPVPAFETPASVQALCDSLRERRQQEDVDPLILTSLFVLDFLSIHPFNDGNGRMSRLLTLLLLYQEGFEVGRYISLEKIVESRKEDYYESLRLSSIHWHQNQQDPFPWVNYLLSTILAAYKELEDRVGLITTGNQNKAGRIRQFVESRITPFTKADVRNACPDVSEATINRLLRELRDEGLIKPSGRGRGAKWIKR | not soluble
8 | MGLEKTVKEKLSFEGVGIHTGEYSKLIIHPEKEGTGIRFFKNGVYIPARHEFVVHTNHSTDLGFKGQRIKTVEHILSVLHLLEITNVTIEVIGNEIPILDGSGWEFYEAIRKNILNQNREIDYFVVEEPIIVEDEGRLIKAEPSDTLEVTYEGEFKNFLGRQKFTFVEGNEEEIVLARTFCFDWEIEHIKKVGLGKGGSLKNTLVLGKDKVYNPEGLRYENEPVRHKVFDLIGDLYLLGSPVKGKFYSFRGGHSLNVKLVKELAKKQKLTRDLPHLPSVQALLEHHHHHH | soluble
9 | MPQTSAWQLNDTTARPPPPPPPPGSEAGGSDGASMNGANTLPRVSKRVSAAGKTSNIPRFKRPHLPHSTRPLSAVLTSSSSPVVHRKISPSSSAPSTSSAHRRFSHLPQQHFHHHIHHNQTAVISEETLTTPRASTLNLNQTSVFPTAISQGSMPNSGTNTAEASMTSSVCAMETEGTNGDELAESRDMVSEMQRRCRIGPSGYPHLLKAKRLRFYRNGDQYFKGIQYALQSDRVKSMQPLMEDLMKTVICDSTALPHGIRHIFTIDGAQRITSVDQFEDGGGYVCSSTDAFKPVDYSRAAEPSWRLTLANRYNRHLETKKLALSVVEPCHENTDFVFPRIIKVIRNGVKPRRISRHLLNKKTARSFDQVLRDLTFVVKLDSGAIRKLFTLSGRPVLSLQDFFRDDDVFVAYGGNEKMAADDLLVASEEHKSVGSGTSSNMRRTSRRSTMPNRNESLRHDRSGSVIPDQDQQRLPPLLDEKFQLVRLIGDGNTAVVYEVIDKTNNDDRKAMKVIARENVIGKEHLIEMELAILQKIDHTFIVQLYDHWFVDDSYYLSLELIEMGDLFEHLRIVRRVPERDAVRMMTCLGQALEYIHELGIVHRDVKLENLLIVKDEFGELGVKLADFGLAAEMPKDFGVLSTICGTPTYVAPEVLNKTGYGCKVDIWAAGVILYAILVGFPPFQSSDGSEQDLFSAIMSGEFSFPSPSWDDVSWSVRHLIMCLIHTDPFHRYSAGELLNDEWMVNLGDVDPEYEEWAHRFVQSKMHVEEEQETPYEYYTSRRTSMDELSESAAVEFSYSCES | not soluble
10 | MQNDNHSTAQPEKDVARLTEEVREAIAHGGDIENAIRNLTLKAMHSNGLDIESLKQIATAVMKGVQEGAQQKMTHAAEQSHAAQSQITQAVVGLDTAFAQLAGASKLALEEAASKAKQFSDSELTKAQADLKDLESVFLDTLKHTATAAQGLIAETLRDMLSHAQHNGTAVGMQLKDTLAVFAHQMASTGRAQFEAGVKLTQTTADLLYKISTGVLSGITSQTNRDDK | not soluble
11 | GSMGDTKEQRILRYVQQNAKPGDPQSVLEAIDTYCTQKEWAMNVGDAKGQIMDAVIREYSPSLVLELGAYCGYSAVRMARLLQPGARLLTMEMNPDYAAITQQMLNFAGLQDKVTILNGASQDLIPQLKKKYDVDTLDMVFLDHWKDRYLPDTLLLEKCGLLRKGTVLLADNVIVPGTPDFLAYVRGSSSFECTHYSSYLEYMKVVDGLEKAIYQGPSSPDKS | soluble
12 | KGATFKEAEEHYHINALYLLAHSALESNWGRSKIAKDKNNFFGITAYDTTPYLSAKTFDDVDKGILGATKWIKENYIDRGRTFLGNKASGMNVEYASDPYWGEKIASVMMKINEKLGGKD | not soluble
13 | MESISRSPRIFLLSLGRWNSGISVCWYSPRHPRAIISDPAPRIAREHATVLFGDSHASEENNAARRRNFHNKKTSRGGNDDKQSRGNNAEKRKRRDPMTSQGPDSDEDELQEMTNKDRLKRAKRKGIDPMDPGAHGGAPVEKWSDGLRVDHVTGADVTAGGPLFQQRPYPAPGAILRKHKPQDEEDDQQFNFLKSF | not soluble
14 | MGSDKIHHHHHHMNLQGLLLFDIDGVIRDVAASYRRAIQETVHHYSGWRPSVAEIDALKTEGIWNNDWDASLELLRRDQKSRNQALELPSREQLIEVFSRFYFGGDPNGDPSNWQGFIRNEPLLVNHRFFEELSSLGFAWGFVSGAEPPSARFVLEQRLGLKHPTLIAMGEAPDKPDPTGLLQLASQLAGRRLGQGVPTVAYLGDTVADVRTVINARQQQPEQQWMSLAVAPPHLHGIEQQEARNAYEDRLKQAGADHILSCTTDAIETLKNW | not soluble
15 | MKTEEMKFINESEFKKLKHYFEQKNTTSSLVLLVALTTGGRFSEIAKLKREDLDIKNNKIHLRGTKTETSDRIISIDTVTMKRIQSFIDSRPTNISGYIFTVDGKTITNAAVNKVLRKACANLNIKEITIHSLRHSFCSILIHHGFSILYISKHLGHSNPATTQSIYSHLLEHHHHHH | soluble
16 | EDSKALDEVVVVAFGTQKKESMISSIETIKPAELKVPSSNLTTALAGRMSGVIAYQRSGEPGKDNADFFIRGVTTFGYKKDPLILIDGIETTTTELARLQPDDIAAFSILKDATATALYGARGANGVIQVATKEGKEGA | not soluble
17 | AAMKVYDVTAPIYEGMPVYKNKPEKQPKRTTITNGYVTESRIDMDVHTGTHIDAPLHMVEGGATFETIPLNDLVGPCKLFDLTHVNDRITKDDIAHLDIQEGDFVLFKTKNSFEDAFHFEFIFVAEDAARYLADKQIRGVGIDALGIERAQEGHPTHKTLFSAGVIIIEGLRLKDVPEGRYFMVAAPLKLVGTDAAPARVLLFDREP | soluble
18 | GLGKFIETCRNTQLAGSSELAAECKTRAQQFVSTKINLDDHIANIDGTLKWQPSNFSQTCYNSAIQGSVLTSTCERTNGGYNTSSIDLNSVIENVDGSLKYE | soluble
19 | MAHHHHHHMAEIHQDKTESAVSSSGILKNVVRHSPKVSSKEIEDSEIRIVKMAHEEENRKLQKMGKCAKDYTLPCPKFWKKKIMNKSENICIASSSYNGFCTPRQSFDNFTKSEKMKFETSCNVEWGCRNVVADACESGKRNYNEPCPEGFISQNDNTCMADLTVYDGLCNGQKIDFTHLTNDEKQNWSVACEAYWPCYIDCSLNNKALSTCPSNWKEINSYECIPPYSYNGPCKDTKNFKFFNELMKKKFEEKCKVTFVCTDLCEKNYRQECPLHWMKEGGYCLAPPSFNLCDRKKYLYSNLTQEEEKKKFEQECSVQWPCQKTSFCDMDWTAECPLNWVKEVPRQGRDQEGGDKYICTADSSLYRGRCAFISLPNGADEETKRELASTCDTPWPCSATGATAGAPEEGGPVPRSDSKIVERRNSAFTNGPVTFQGDVRTNGGPTYRVVDSQGDVSLADIMR | not soluble
20 | MKIAVLGATGRAGSAIVAEARRRGHEVLAVVRDPQKAADRLGATVATLVKEPLVLTEADLDSVDAVVDALSVPWGSGRGYLHLDFATHLVSLLRNSDTLAVFILGSASLAMPGADHPMILDFPESAASQPWYDGALYQYYEYQFLQMNANVNWIGISPSEAFPSGPATSYVAGKDTLLVGEDGQSHITTGNMALAILDQLEHPTAIRDRIVVRLEHHHHHH | not soluble
21 | MGSDKIHHHHHHVQVVSISSLKGGVGKTSVTTGLASAALAAGIPTLVVDLDPHADASTALGVQPDEQLDIGRMLKSPRRARLSQNVVTSGWVARENYNGARPAVLDVAVGSAYTGIYDRPDLGRRDLRRLSAVLAGTDKYQLILVDCPPSLNGLTRMAWSASDKVALVAEPGLFSVAGTERTMRAIQLFRQEFAPNLSPAGIIANRVRSGSSEHAFRLAEMQSMFGELLLTPYIPEQANWQQIQGAAHSVHHWPGDSAKNAASLFNTLLDNLMASNDAGSAGALRERSLR | not soluble
22 | MYLSHFGFRVQPFSLTPNTEMFLGLVPHYEAIQTILAAVQMGEGVIKVTGEVGTGKTMVCRKLIEQIESQVELVYLPNPVLNGEQLQFAVARELGIDNDDPLRIVSLIQEHLIRVHSTGKKTVLIVDEAQALSPEALETLRLFGNLETEQDKLIQLVLFGQPELDERLSMHELRQFRQRITFSCGLRPLSVDEGVAYINNRLDKAGNGAHIFSIEQKKAIWRSAMGIPRLINQISHKALLAAFNDRCTLLKNHHVYAAMHDTFDARKPKFKTPVFWGWSQPLEHHHHHH | not soluble
